The source of these data is patent US20220064329A1 (Novo Nordisk, published 2022).

Assay in all cases: SPR, Biacore T200, 25 C; FVII(a) variant captured on anti-Gla Ab 4F6, mAb0842(OA) injected
A general note: Surface plasmon resonance follows binding to a sensor surface in real time, without labels.

For one experiment, the target named is T1, FVII(a) variant V252A (human, UniProt P08709 61-466).
T1 construct: hFVII alanine variant in cell culture supernatant
T1 sequence: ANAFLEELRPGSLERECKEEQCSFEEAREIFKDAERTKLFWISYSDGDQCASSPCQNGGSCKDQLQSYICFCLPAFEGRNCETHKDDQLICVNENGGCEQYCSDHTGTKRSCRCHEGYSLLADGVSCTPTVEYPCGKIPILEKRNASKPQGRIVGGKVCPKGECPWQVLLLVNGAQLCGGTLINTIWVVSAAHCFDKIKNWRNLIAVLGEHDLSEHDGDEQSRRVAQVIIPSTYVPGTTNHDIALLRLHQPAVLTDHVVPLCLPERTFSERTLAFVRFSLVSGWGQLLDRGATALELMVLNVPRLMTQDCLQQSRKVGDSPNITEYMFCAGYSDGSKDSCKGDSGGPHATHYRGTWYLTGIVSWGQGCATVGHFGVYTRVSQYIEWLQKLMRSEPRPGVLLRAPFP
Here is the method: (§1) The running buffer was prepared by diluting 10-fold the 10×HBS-P buffer (supplied by GE Healthcare) and supplemented with 1 mg/ml BSA and 5 mM CaCl2 to give 10 mM HEPES, 150 mM NaCl, 0.05% v/v Polysorbate 20, pH 7.4, 5 mM CaCl2, 1 mg/ml bovine serum albumin (BSA). […] Regeneration of the chip was achieved using 10 mM HEPES, 150 mM NaCl, 20 mM EDTA, 0.05 v/v Polysorbate 20, pH 7.4. Binding data were analysed according to a 1:1 Kinetic model and steady state analysis using BiaEvaluation 4.1 supplied by the manufacturer (Biacore AB, Uppsala, Sweden). Wherever possible, ka, kd and KD values from 1:1 kinetic fitting model are reported. […] An amino acid residue is considered a hot-spot residue if substitution of that amino acid residue with alanine results in an affinity reduction of ten (10) fold or more relative to the wild type.

The target of a further experiment is T2, FVII(a) variant R392A (human, UniProt P08709 61-466).
T2 construct: hFVII alanine variant in cell culture supernatant
T2 sequence: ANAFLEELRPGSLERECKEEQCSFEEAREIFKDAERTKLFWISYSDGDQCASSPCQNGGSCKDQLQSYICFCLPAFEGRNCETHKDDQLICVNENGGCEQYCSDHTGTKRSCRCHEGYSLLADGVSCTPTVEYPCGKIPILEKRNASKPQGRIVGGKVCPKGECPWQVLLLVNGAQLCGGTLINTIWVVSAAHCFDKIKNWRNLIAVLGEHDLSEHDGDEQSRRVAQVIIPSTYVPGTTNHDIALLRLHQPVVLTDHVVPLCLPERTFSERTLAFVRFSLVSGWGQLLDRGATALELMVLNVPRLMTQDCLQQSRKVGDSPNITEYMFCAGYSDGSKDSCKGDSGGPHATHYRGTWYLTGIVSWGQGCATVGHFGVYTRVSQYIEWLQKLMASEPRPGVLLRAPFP
Here is the method: as §1

In another experiment the target is T3, FVII(a) variant R113A (human, UniProt P08709 61-466).
T3 construct: hFVII alanine variant in cell culture supernatant
T3 sequence: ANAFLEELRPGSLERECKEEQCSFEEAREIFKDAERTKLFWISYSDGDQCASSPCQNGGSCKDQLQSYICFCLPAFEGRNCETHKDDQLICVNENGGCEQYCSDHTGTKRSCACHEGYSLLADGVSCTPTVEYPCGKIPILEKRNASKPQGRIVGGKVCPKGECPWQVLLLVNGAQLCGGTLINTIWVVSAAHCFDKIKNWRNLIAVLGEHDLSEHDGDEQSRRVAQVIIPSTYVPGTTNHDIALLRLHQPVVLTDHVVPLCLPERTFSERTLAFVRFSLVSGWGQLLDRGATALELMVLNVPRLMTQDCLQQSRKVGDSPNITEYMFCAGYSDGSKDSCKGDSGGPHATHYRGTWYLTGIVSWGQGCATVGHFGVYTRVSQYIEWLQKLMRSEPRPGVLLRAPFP
As for the experimental part:
as §1

A further experiment concerns the target T4, FVII(a) variant E394A (human, UniProt P08709 61-466).
T4 construct: hFVII alanine variant in cell culture supernatant
T4 sequence: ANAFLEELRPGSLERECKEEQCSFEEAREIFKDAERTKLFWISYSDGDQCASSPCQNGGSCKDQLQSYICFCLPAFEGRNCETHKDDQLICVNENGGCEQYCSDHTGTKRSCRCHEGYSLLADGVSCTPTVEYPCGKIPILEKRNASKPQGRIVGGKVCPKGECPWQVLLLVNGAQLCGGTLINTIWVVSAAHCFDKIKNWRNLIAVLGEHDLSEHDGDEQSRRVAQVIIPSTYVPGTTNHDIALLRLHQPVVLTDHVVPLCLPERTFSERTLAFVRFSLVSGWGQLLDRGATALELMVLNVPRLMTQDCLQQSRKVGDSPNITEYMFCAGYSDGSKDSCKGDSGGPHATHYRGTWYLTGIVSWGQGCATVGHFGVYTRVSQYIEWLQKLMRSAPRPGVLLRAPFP
Here is the method: as §1

The target in a further experiment is T5, FVII(a) variant H115A (human, UniProt P08709 61-466).
T5 construct: hFVII alanine variant in cell culture supernatant
T5 sequence: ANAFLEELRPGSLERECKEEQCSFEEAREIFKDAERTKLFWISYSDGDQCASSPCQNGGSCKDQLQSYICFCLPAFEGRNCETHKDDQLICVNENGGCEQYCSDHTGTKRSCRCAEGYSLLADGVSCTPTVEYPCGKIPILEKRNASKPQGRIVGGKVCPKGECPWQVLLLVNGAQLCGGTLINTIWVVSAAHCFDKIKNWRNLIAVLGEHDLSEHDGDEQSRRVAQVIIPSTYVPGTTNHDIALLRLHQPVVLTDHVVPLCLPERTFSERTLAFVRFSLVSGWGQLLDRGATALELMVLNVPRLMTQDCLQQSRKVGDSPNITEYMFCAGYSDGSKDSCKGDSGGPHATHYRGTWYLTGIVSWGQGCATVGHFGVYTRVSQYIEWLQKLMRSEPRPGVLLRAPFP
As for the experimental part:
as §1

B1: mAb0842(OA) (antibody, human IgG4 S228P, kappa)
heavy: QVQLQESGPGLVKPSQTLSLTCTVSGYSISSDSAWSWIRQPPGKGLEWIGYIQYSGSTNYNPSLKSRVTISRDTSKNQFSLKLSSVTAADTAVYYCARSVNYYGNSFAVGYWGQGTLVTVSSASTKGPSVFPLAPCSRSTSESTAALGCLVKDYFPEPVTVSWNSGALTSGVHTFPAVLQSSGLYSLSSVVTVPSSSLGTKTYTCNVDHKPSNTKVDKRVESKYGPPCPPCPAPEFLGGPSVFLFPPKPKDTLMISRTPEVTCVVVDVSQEDPEVQFNWYVDGVEVHNAKTKPREEQFNSTYRVVSVLTVLHQDWLNGKEYKCKVSNKGLPSSIEKTISKAKGQPREPQVYTLPPSQEEMTKNQVSLSCAVKGFYPSDIAVEWESNGQPENNYKTTPPVLDSDGSFFLVSRLTVDKSRWQEGNVFSCSVMHEALHNHYTQKSLSLSLGK
light: EIVLTQSPATLSLSPGERATLSCRASQGISDYLHWYQQKPGEAPRLLIKYTSQPATGIPARFSGSGSGTDFTLTISSLEPEDFAVYYCQNGHSFPLTFGQGTKLEIKRTVAAPSVFIFPPSDEQLKSGTASVVCLLNNFYPREAKVQWKVDNALQSGNSQESVTEQDSKDSTYSLSSTLTLSKADYEKHKVYACEVTHQGLSSPVTKSFNRGEC
chain: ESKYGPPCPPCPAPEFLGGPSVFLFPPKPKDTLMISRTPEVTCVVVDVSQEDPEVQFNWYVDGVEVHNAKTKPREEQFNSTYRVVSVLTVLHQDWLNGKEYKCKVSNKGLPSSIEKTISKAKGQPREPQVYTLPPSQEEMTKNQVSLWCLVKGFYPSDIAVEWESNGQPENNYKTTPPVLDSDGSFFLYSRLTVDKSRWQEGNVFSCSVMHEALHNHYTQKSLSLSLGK
notes: also called monovalent humanized 11F2 antibody; one-armed anti-FVII(a) antibody
What is called Kd is the concentration at which binding is half-saturated. Regarding B1, the Kd in the experiment with FVII(a) variant V252A amounted to 0.28 nM; with FVII(a) variant R392A it was 43.4 nM; with FVII(a) variant R113A, 0.29 nM; with FVII(a) variant E394A, 0.79 nM; with FVII(a) variant H115A, 8.16 nM.
